“Also recorded” adds a separate entry of the source.

Consider one substance from patent publication US20260009008A1, “SYNTHETIC GENOME EDITING SYSTEM” (Pencil Biosciences Limited, priority 2021, published 2026).

The nature of series [1]: Thioflavin T assay. The format is physicochemical. Particulars: 200 μM peptide, 25 μM ThT, 37° C., excitation 450 nm. The text has this: Appropriate self-assembling peptides (alternatively referred to as folding peptides as in a single folding structure) will form a structure which can be identified by thioflavin T (Tht) binding. Fluorescence emission assay of Thioflavin T binding is commonly employed to detect amyloid fibrils. Upon binding to amyloid fibrils, ThT gives a strong fluorescence signal at approximately 482-485 nm when excited at 450 nm (Xue et al. (2017) Royal. Soc. Open Sci. 4:160696, 'Thioflavin T as an amyloid dye: fibril quantification, optimal concentration and effect on aggregation).
Such peptides were tested for ability to self-assemble to provide a β-sheet supramolecular structure and nickase activity. Ability to provide a β-sheet supramolecular structure was determined by thioflavin T fluorescence binding (Xue et al. (2017) Royal Soc. Open Sci. 4:160696). Nickase activity was investigated by means of a molecular beacon assay combined with a gel plasmid cleavage assay.
Thioflavin T (ThT) was mixed with the peptides in reaction buffer solution. Peptides were diluted to 200 μM (from a stock solution of 4.4 mM in DMSO) using a reaction buffer solution (the same buffer as used for the initial molecular beacon assays as set out below). […] The emission signal at 485 nm was measured every 5 minutes using an excitation wavelength of 450 nm. […]

Series [2] concerns plasmid DNA (pBR322). The series is described as follows: Gel plasmid cleavage assay. The series is classed as biochemical. The text has this:
For this reason a further gel plasmid cleavage assay was employed to look for cleavage. Such a gel cleavage assay can differentiate between plasmid that is intact (no cleavage), nicked (ssDNA cleavage) and linearised (dsDNA cleavage) as the three plasmid species will migrate differently on an agarose gel. Intact plasmids have a supercoiled structure and therefore can migrate easily through an agarose gel whereas a ssDNA cleavage on the plasmid will relax this supercoiled structure. This produces a relaxed circle/nicked structure that migrates more slowly through the pores. The dsDNA cleavage of a plasmid produces a linearised plasmid. The linear structure migrates faster than a relaxed circular structure although not as fast as the supercoiled structure.
To optimize the assay, plasmid DNA (pBR322) was mixed with increasing concentrations of the peptide bL or bN, in the presence of Zn^2 + ions. […] The percentage of nicked species increases with greater peptide concentration for both bL and bN. […] An increasing proportion of the plasmid DNA is also observed in the wells of the gel. This DNA can be binding to the peptide causing a complex that is unable to migrate into the gel.

Series [3] is described as follows: Observation of peptide aggregation / precipitation. The series is classed as physicochemical.

With LELDLHL [bD], the “Thioflavin T emission signal at 485 nm (amyloid-like fibrils)” value in series [1] is “high emission signal was measured instantly; also recorded: higher propensity to produce a highly stable amyloid beta sheet structure; also recorded: indicative of production of amyloid β-sheet structure”. Further, in series [2], the cleavage of plasmid result is listed as “some cleavage” and the “percentage of cleavage versus peptide concentration” value was “increase with peptide concentration”. In addition, the “aggregation / precipitation of peptide” value in series [3] was “least propensity to aggregate and to precipitate”.
